Experimental data as given in patent US20240115722A1 (RUTGERS THE STATE UNIVERSITY OF NEW JERSEY, published 2024).
Where a chain is given by its changes, count along the chain named.

B1: VH3/VK2 humanized 11C12 antibody (antibody, human IgG1, kappa)
heavy: not shown
light: DIVMTQSPDSLAVSLGERATINCKASQSVDYDGDSYMNWYQQKPGKAPKLLIYGASNLESGIPDRFSGSGSGTDFTLTISRLEPEDAASYYCQQSNEDPFTFGQGTKLEIKRTVAAPSVFIFPPSDEQLKSGTASVVCLLNNFYPREAKVQWKVDNALQSGNSQESVTEQDSKDSTYSLSSTLTLSKADYEKHKVYACEVTHQGLSSPVTKSFNRGEC
notes: Human IgG1/kappa; tested as HEK293 EBNA supernatant; also called H3K2
B2: VH0/VK1 (antibody, human IgG1, kappa, V domains shown)
VH: EVTLKESGGGLVQPGGSRKLSCAASGFTFSTFGIHWVRQAPEKGLEWVAYISGASTTIYYADTVKGRFTISRDNPKNTLFLQMTSLRSEDTAMYYCARYGTSFPYGLDYWGQGTSVTVSS
VL: DIVMTQSPGSLAVSLGERATINCKASQSVDYDGDSYMNWYQQKPGKAPKLLIYGASNLESGIPDRFSGSGSGTDFTLTISRLEEEDAASYYCQQSNEDPFTFGQGTKLEIKR
notes: tested as HEK supernatant; also called control antibody (chimeric heavy chain with humanized VK1 light chain)
B3: VH6/VK1 humanized 11C12 antibody (antibody, human IgG1, kappa, V domains shown)
VH: EVQLVESGGGLVQPGGSLKLSCAASGFTFSTFGIHWVRQAPGKGLEWVASISGASTTIYYADSVKGRFTISRDNSKNTLYLQMNSLRAEDTAVYYCARYGTSFPYGLDYWGQGTLVTVSS
VL: B2 VL
notes: Human IgG1/kappa; tested as HEK293 EBNA supernatant; also called H6K1
B4: VH1/VK2 humanized 11C12 antibody (antibody, human IgG1, kappa)
heavy: not shown
light: B1 light
notes: Human IgG1/kappa; tested as HEK293 EBNA supernatant; also called H1K2
B5: VH1/VK3 humanized 11C12 antibody (antibody, human IgG1, kappa)
heavy: not shown
light: B1 light with S89V
notes: Human IgG1/kappa; tested as HEK293 EBNA supernatant; also called H1K3
B6: VH5/VK1 humanized 11C12 antibody (antibody, human IgG1, kappa, V domains shown)
VH: B3 VH with S50Y
VL: B2 VL
notes: Human IgG1/kappa; tested as HEK293 EBNA supernatant; also called H5K1
B7: VH4/VK2 humanized 11C12 antibody (antibody, human IgG1, kappa, V domains shown)
VH: B3 VH with S50Y, S63T
VL: B2 VL with G9D, E84P
notes: Human IgG1/kappa; tested as HEK293 EBNA supernatant; also called H4K2
B8: VH4/VK5 humanized 11C12 antibody (antibody, human IgG1, kappa, V domains shown)
VH: B3 VH with S50Y, S63T
VL: B2 VL with G9D, A25S, E84P, S89V
notes: Human IgG1/kappa; tested as HEK293 EBNA supernatant; also called H4K5
B9: VH3/VK3 humanized 11C12 antibody (antibody, human IgG1, kappa)
heavy: not shown
light: B1 light with S89V
notes: Human IgG1/kappa; tested as HEK293 EBNA supernatant; also called H3K3
B10: VH1/VK5 humanized 11C12 antibody (antibody, human IgG1, kappa)
heavy: not shown
light: B1 light with A25S, S89V
notes: Human IgG1/kappa; tested as HEK293 EBNA supernatant; also called H1K5
B11: VH2/VK5 humanized 11C12 antibody (antibody, human IgG1, kappa)
heavy: not shown
light: B1 light with A25S, S89V
notes: Human IgG1/kappa; tested as HEK293 EBNA supernatant; also called H2K5
B12: VH3/VK1 humanized 11C12 antibody (antibody, human IgG1, kappa)
heavy: not shown
light: B1 light with D9G, P84E
notes: Human IgG1/kappa; tested as HEK293 EBNA supernatant; also called H3K1
B13: VH4/VK1 humanized 11C12 antibody (antibody, human IgG1, kappa, V domains shown)
VH: B3 VH with S50Y, S63T
VL: B2 VL
notes: Human IgG1/kappa; tested as HEK293 EBNA supernatant; also called H4K1
B14: VH1/VK1 humanized 11C12 antibody (antibody, human IgG1, kappa)
heavy: not shown
light: B1 light with D9G, P84E
notes: Human IgG1/kappa; tested as HEK293 EBNA supernatant; also called H1K1
B15: VH6/VK4 humanized 11C12 antibody (antibody, human IgG1, kappa, V domains shown)
VH: B3 VH
VL: B2 VL with G9D, A25S, E84P
notes: Human IgG1/kappa; tested as HEK293 EBNA supernatant; also called H6K4
B16: VH1/VK4 humanized 11C12 antibody (antibody, human IgG1, kappa)
heavy: not shown
light: B1 light with A25S
notes: Human IgG1/kappa; tested as HEK293 EBNA supernatant; also called H1K4
B17: VH6/VK5 humanized 11C12 antibody (antibody, human IgG1, kappa, V domains shown)
VH: B3 VH
VL: B2 VL with G9D, A25S, E84P, S89V
notes: Human IgG1/kappa; tested as HEK293 EBNA supernatant; also called H6K5
B18: VH6/VK3 humanized 11C12 antibody (antibody, human IgG1, kappa, V domains shown)
VH: B3 VH
VL: B2 VL with G9D, E84P, S89V
notes: Human IgG1/kappa; tested as HEK293 EBNA supernatant; also called H6K3
B19: VH2/VK1 humanized 11C12 antibody (antibody, human IgG1, kappa)
heavy: not shown
light: B1 light with D9G, P84E
notes: Human IgG1/kappa; tested as HEK293 EBNA supernatant; also called H2K1
B20: VH3/VK5 humanized 11C12 antibody (antibody, human IgG1, kappa)
heavy: not shown
light: B1 light with A25S, S89V
notes: Human IgG1/kappa; tested as HEK293 EBNA supernatant; also called H3K5
B21: VH2/VK4 humanized 11C12 antibody (antibody, human IgG1, kappa)
heavy: not shown
light: B1 light with A25S
notes: Human IgG1/kappa; tested as HEK293 EBNA supernatant; also called H2K4
B22: VH2/VK2 humanized 11C12 antibody (antibody, human IgG1, kappa)
heavy: not shown
light: B1 light
notes: Human IgG1/kappa; tested as HEK293 EBNA supernatant; also called H2K2
B23: VH2/VK3 humanized 11C12 antibody (antibody, human IgG1, kappa)
heavy: not shown
light: B1 light with S89V
notes: Human IgG1/kappa; tested as HEK293 EBNA supernatant; also called H2K3
B24: VH6/VK2 humanized 11C12 antibody (antibody, human IgG1, kappa, V domains shown)
VH: B3 VH
VL: B2 VL with G9D, E84P
notes: Human IgG1/kappa; tested as HEK293 EBNA supernatant; also called H6K2
B25: VH5/VK5 humanized 11C12 antibody (antibody, human IgG1, kappa, V domains shown)
VH: B3 VH with S50Y
VL: B2 VL with G9D, A25S, E84P, S89V
notes: Human IgG1/kappa; tested as HEK293 EBNA supernatant; also called H5K5
B26: VH1/VK0 (antibody, human IgG1, kappa, V domains shown)
VH: B2 VH with K5V, E42G, P75S, F80Y, T84N
VL: B2 VL with E17Q, N22S, K46Q, A47P, D64A, T78N, S80H, R81P, L82V, Q104S
notes: tested as HEK supernatant; also called control antibody (humanized VH1 heavy chain with chimeric light chain)

target: T1, recombinant human EphA5 (rhEphA5) antigen (human, UniProt P54756 25-573); assay: SPR single-cycle kinetics (Biacore T200), IgG from HEK supernatant captured on anti-human IgG CM5 chip, rhEphA5 as analyte, 1:1 fit; design: Relative KD: reference not given here
T1 construct: also called human EphA5 (R and D systems, Cat. No. 3036-A5); recombinant EphA5
T1 sequence (P54756 25-573 limits assumed): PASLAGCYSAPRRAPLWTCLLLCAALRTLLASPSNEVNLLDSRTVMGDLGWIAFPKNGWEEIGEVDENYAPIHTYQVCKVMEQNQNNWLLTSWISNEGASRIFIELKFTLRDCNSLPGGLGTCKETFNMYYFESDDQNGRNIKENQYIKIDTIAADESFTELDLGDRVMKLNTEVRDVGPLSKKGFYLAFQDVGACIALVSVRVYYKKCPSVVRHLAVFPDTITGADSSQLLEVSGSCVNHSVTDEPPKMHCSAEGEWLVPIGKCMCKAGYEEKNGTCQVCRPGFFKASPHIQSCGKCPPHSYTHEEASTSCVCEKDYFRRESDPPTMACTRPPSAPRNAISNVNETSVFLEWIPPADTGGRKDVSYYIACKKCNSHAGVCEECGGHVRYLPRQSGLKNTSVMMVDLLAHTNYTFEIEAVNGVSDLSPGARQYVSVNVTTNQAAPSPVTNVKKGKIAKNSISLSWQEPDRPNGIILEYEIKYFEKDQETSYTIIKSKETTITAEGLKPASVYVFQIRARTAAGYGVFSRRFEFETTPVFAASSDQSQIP
Description: Kinetic analysis was carried out on a Biacore T200. Each antibody was captured on a CM5 chip coupled with an anti-human IgG using standard amine chemistry before increasing concentrations of antigen were injected and a single off-rate was determined.
Kinetic experiments were performed at 25° C. on a Biacore T200 running Biacore T200 Control software V2.0.1 and Evaluation software V3.0 (Cytiva, Uppsala, Sweden).
HBS-P+ (Cytiva, Uppsala, Sweden), supplemented with 1% BSA (Sigma, Dorset, UK) was used as running buffer as well as for ligand and analyte dilutions. Supernatants containing IgG were diluted in running buffer to 1 μg/mL. At the start of each cycle, antibodies were loaded onto Fc2, Fc3 and Fc4 of an anti-human IgG CM5 sensor chip (Cytiva, Little Chalfont, UK). Ig were captured at a flow rate of […] to give an immobilization level (RL) of ˜60 RU. The surface was then allowed to stabilize.

B1 and B2 are within 1.5-fold of each other in Kd: 0.968 nM for the first, 1.12 nM for the second.

First: B3
Second: B4
The Kd of the first is 10-fold higher: 10 nM for the first, 0.968 nM for the second. The second binds more tightly here.

B5 and B6 are within 1.5-fold of each other in Kd: 0.948 nM for the first, 0.947 nM for the second.

B7 and B8 are within 1.5-fold of each other in Kd: 0.854 nM for the first, 0.996 nM for the second.

B9 and B10 are within 1.5-fold of each other in Kd: 1.01 nM for the first, 1.12 nM for the second.

B11 and B12 are within 1.5-fold of each other in Kd: 1.05 nM for the first, 0.884 nM for the second.

B13 and B14 are within 1.5-fold of each other in Kd: 0.975 nM for the first, 1.02 nM for the second.

First: B15
Second: B16
The Kd of the first is 8.9-fold higher: 9.76 nM for the first, 1.1 nM for the second.

B17 and B18 are within 1.5-fold of each other in Kd: 7.1 nM for the first, 6.52 nM for the second.

B19 and B20 are within 1.5-fold of each other in Kd: 0.89 nM for the first, 1.1 nM for the second.

B21 and B22 are within 1.5-fold of each other in Kd: 0.917 nM for the first, 0.971 nM for the second.

Compared with B23, B24 is 9.6-fold higher in Kd: 0.985 nM for the first, 9.49 nM for the second.

B25 and B26 are within 1.5-fold of each other in Kd: 1.03 nM for the first, 1.04 nM for the second.

Going from B1 to B2, the “Relative KD” value rises from 0.73 to 0.84.

First: B3
Second: B4
The “Relative KD” value of the first is higher: 7.52 for the first, 0.73 for the second.

B5 and B6 are the same in “Relative KD” value: 0.71 for the first, 0.71 for the second.

First: B7
Second: B8
The “Relative KD” value of the first is lower: 0.64 for the first, 0.75 for the second.

Compared with B9, B10 is higher in “Relative KD” value: 0.76 for the first, 0.84 for the second.

Compared with B11, B12 is lower in “Relative KD” value: 0.79 for the first, 0.66 for the second.

Compared with B13, B14 is higher in “Relative KD” value: 0.73 for the first, 0.77 for the second.

Compared with B15, B16 is lower in “Relative KD” value: 7.34 for the first, 0.83 for the second.

First: B17
Second: B18
The “Relative KD” value of the first is higher: 5.34 for the first, 4.9 for the second.

Compared with B19, B20 is higher in “Relative KD” value: 0.67 for the first, 0.83 for the second.

Going from B21 to B22, the “Relative KD” value rises from 0.69 to 0.73.

First: B23
Second: B24
The “Relative KD” value of the first is lower: 0.74 for the first, 7.14 for the second.

Compared with B25, B26 is higher in “Relative KD” value: 0.77 for the first, 0.78 for the second.

B1 and B2 are within 1.5-fold of each other in koff: 0.0013 s⁻¹ for the first, 0.00137 s⁻¹ for the second.

First: B3
Second: B4
The koff of the first is 130-fold higher: 0.165 s⁻¹ for the first, 0.00126 s⁻¹ for the second.

B5 and B6 are within 1.5-fold of each other in koff: 0.00125 s⁻¹ for the first, 0.00127 s⁻¹ for the second.

B7 and B8 are within 1.5-fold of each other in koff: 0.00114 s⁻¹ for the first, 0.00137 s⁻¹ for the second.

B9 and B10 are within 1.5-fold of each other in koff: 0.00133 s⁻¹ for the first, 0.00139 s⁻¹ for the second.

B11 and B12 are within 1.5-fold of each other in koff: 0.0014 s⁻¹ for the first, 0.00123 s⁻¹ for the second.

B13 and B14 are within 1.5-fold of each other in koff: 0.00129 s⁻¹ for the first, 0.00128 s⁻¹ for the second.

Going from B15 to B16, the koff falls from 0.209 s⁻¹ to 0.00137 s⁻¹ (150-fold).

B17 and B18 are within 1.5-fold of each other in koff: 0.285 s⁻¹ for the first, 0.341 s⁻¹ for the second.

B19 and B20 are within 1.5-fold of each other in koff: 0.0012 s⁻¹ for the first, 0.00143 s⁻¹ for the second.

B21 and B22 are the same in koff: 0.00126 s⁻¹ for the first, 0.00126 s⁻¹ for the second.

Compared with B23, B24 is 120-fold higher in koff: 0.00132 s⁻¹ for the first, 0.165 s⁻¹ for the second.

B25 and B26 are within 1.5-fold of each other in koff: 0.0014 s⁻¹ for the first, 0.00127 s⁻¹ for the second.
